Square brackets hold non-standard residues; d marks the D form. Ends that are not written are not given here. sY = N[C@@H](Cc1ccc(OS(=O)(=O)O)cc1)C(=O)O
B1: SY(SO3)DY(SO3)G (peptide)
peptide: S[sY]D[sY]G
modifications: not fully specified (C-terminus); printed as SY(SO3)DY(SO3)G
notes: Independently synthesized free peptide used in SPR
B2: Y(SO3)Y(SO3)GGY(SO3)DY(SO3)G (peptide)
peptide: [sY][sY]GG[sY]D[sY]G
modifications: not fully specified (N-terminus, C-terminus); printed as Y(SO3)Y(SO3)GGY(SO3)DY(SO3)G
notes: as for B1

Columns and labels:
[1] = target: T1, VEGF165 (vascular endothelial cell growth factor, 165 isoform), recombinant from E. coli, refolded dimer (human, UniProt P15692-4 27-191, Example 1: about 4 AMCA coumarins per VEGF165, sites not given; Example 3 screen: biotinylated, sites not given); test: SPR
T1 construct: Tags from the pRSET vector are not mentioned; also called coumerin-VEGF; coumarin-labeled VEGF165
T1 sequence (P15692 other isoform, or with tags, fused parts or gaps limits assumed): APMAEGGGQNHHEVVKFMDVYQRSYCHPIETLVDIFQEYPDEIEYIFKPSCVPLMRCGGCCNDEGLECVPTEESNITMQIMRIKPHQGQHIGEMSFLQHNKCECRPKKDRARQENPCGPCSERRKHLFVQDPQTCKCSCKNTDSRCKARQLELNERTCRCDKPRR

[2] = target: T1, VEGF165 (vascular endothelial cell …); test: on-bead colorimetric screen, about 0.25 nM biotinylated VEGF165 with 1 equivalent of heparin
Protocol: The resin was rinsed with TBS (5×) and 200 μL of 5-bromo-4-chloro-3-indoylphosphate p-toluidine salt/nitro blue tetrazolium chloride (BCIP/NBT) reagent was added to develop a blue/black color where the streptavidin alkaline phosphatase was present. Nonspecific adsorption of the streptavidin alkaline phosphatase was detected as blue/black stained beads. After 15 minutes, the resin was rinsed with TBS (5×) prior to adding 100 μL of about 0.25 nM of biotinylated VEGF₁₆₅ in the presence or absence of 1 or 10 equivalents of heparin sodium salt (isolated from porcine intestinal mucosa) in 400 μL of blocking buffer. The mixture was shaken overnight, the solution removed, the resin washed with TBS (6×), and 1 mL streptavidin alkaline phosphatase (diluted 1:1000 from a 1 mg/mL solution) was added. The streptavidin alkaline phosphatase preferentially attached to beads having VEGF since the VEGF was attached to biotin, which is a ligand for the streptavidin on the streptavidin alkaline phosphatase. After 2 h the solution was removed and rinsed with TBS (5×) and Fast Red substrate (PIERCE) was added to make the presence of the alkaline phosphatase visible by making a red color. Positive beads were those that were stained red. The red beads were selected, and subjected to 8M guanidine-HCl, pH=1.4 for 20 minutes prior to rinsing with H20 (3×) and DMF until residual color was removed. […]

Binder | Kd [1] [nM] | binding result [2]
B1 | 3100 | –
[sY][sY]GG[sY]D[sY]GGGG-{PEGA resin} (not fully specified (N-terminus); printed as Y(SO3)Y(SO3)GGY(SO3)DY(SO3)) [Y(SO3)Y(SO3)GGY(SO3)DY(SO3)-Gly-Gly-Gly-Gly-PEGA bead] | – | binds
F[sY]GG[sY]D[sY]GGGG-{PEGA resin} (not fully specified (N-terminus)) [FY(SO3)GGY(SO3)DY(SO3)-Gly-Gly-Gly-Gly-PEGA bead] | – | binds
B2 | 140 | –
